The values that follow are results of earlier work, collected in paper PMC10532153, “Interactions of the N- and C-Terminal SH3 Domains of Drosophila Drk with the Proline-Rich Peptides from Sos and Dos” (International Journal of Molecular Sciences, 2023).

For the data set, the target named is T1, Drk-CSH3 (Drosophila melanogaster, UniProt Q08012).
T1 construct: its N- and C-terminal SH3 domains (Drk-NSH3 and Drk-CSH3, respectively); made in house
The conditions noted are these: previous paper on Drk-CSH3; read-out: Kd for Drk-CSH3, nine-residue (“shorter”) Dos peptides. An excerpt: Table 1 The calculated dissociation constants (Kds) for Sos- and Dos-derived peptides.

T1 sequence (Q08012 152-211 limits assumed): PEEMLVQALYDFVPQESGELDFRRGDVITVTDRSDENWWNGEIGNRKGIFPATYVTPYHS

Broadly, the Kd is a measure of binding affinity in units of concentration. In the case of PPVNRKLKP [shorter Dos-S1], the Kd was roughly 1.4 mM. With PSVDRKCKP [shorter Dos-S2], the Kd is roughly 4.8 mM.
